Drawing on the RNAGym collection of RNA variant scans (doi:10.7554/elife.80360), this text covers self-cleavage for 167 variants.

B1: CPEB3 Ribozyme (parent)
chain: GGGGGCCACAGCAGAAGCGUUCACGUCGCGGCCCCUGUCAGAUUCUGGUGAAUCUGCGAAUUCUGCUGU

Variants of B1 are the subject of the data set. Nature of the data set: self-cleavage, relative activity (ratio to wild type); higher = more cleavage; co-transcriptional.
Consider U26G G37A, for which the self-cleavage worked out at 0.21. In the case of C27U G47C, the self-cleavage came to 0.436.

Turning to C27U G47U, the self-cleavage stood at 0.431. For C27U C34U the value was 0.415; for C27U C34A, 0.201; for U26G U61G, 0.558.

Regarding C27A U38A, the self-cleavage was found to be 0.26. For C27A U38C, the self-cleavage came out at 0.324. For the variant U26G, the self-cleavage is 0.924. Turning to C27U A52C, the self-cleavage amounted to 0.302. For C27U A52G the value was 0.415; for C27U A52U, 0.291. In the case of C27G A60U, the self-cleavage was determined as 0.181.

C27G A60G: the self-cleavage is 0.204. For C27A C29G the value was 0.195; for C27G C35U, 0.179.

For the variant C27G C35A, the self-cleavage came out at 0.124. For C27G C35G the value was 0.171; for U26G C39A, 0.406. For U26G C39U the value was 0.731; for U26G C39G, 0.756; for U26G U46G, 0.86.

For the variant U26G U46C, the self-cleavage came to 0.86.

Turning to U26G U46A, the self-cleavage came out at 0.854. For C27U G65A the value was 0.172. With C27U G65U, the self-cleavage is 0.148. Turning to C27U G65C, the self-cleavage turned out to be 0.196. With C27A C63A, the self-cleavage was 0.227.

With C27G U61A, the self-cleavage is 0.19. As for C27A U46G, the self-cleavage stood at 0.725. For C27A U46A the value was 0.736. Turning to U26G C34G, the self-cleavage came to 0.409. For U26G C34U the value was 0.95. For C27G G65A the value was 0.141.

As to C27A G65C, the self-cleavage came out at 0.288. Consider C27A G65A, for which the self-cleavage came to 0.255. C27A G65U: the self-cleavage turned out to be 0.202. Consider C27U G41C, for which the self-cleavage is 0.195.

As for C27U G41U, the self-cleavage came out at 0.186.

As to C27G U55A, the self-cleavage was found to be 0.142. In the case of C27G U55G, the self-cleavage stood at 0.159.

Take C27G G47C: the self-cleavage came out at 0.226. Take C27U A51C: the self-cleavage is 0.259. For C27U A51U, the self-cleavage was found to be 0.303. In the case of C27U A51G, the self-cleavage came out at 0.376. For U26G C32G the value was 0.234; for U26G C32A, 0.552; for C27U G48C, 0.397.

For C27A G68A, the self-cleavage is 0.853. For U26G G68C the value was 0.932; for U26G G68U, 0.968.

On to U26G G68A, for which the self-cleavage was 1.01. For U26G U44G the value was 0.811.

Turning to U26G U44A, the self-cleavage was 0.925. Take U26G U44C: the self-cleavage was found to be 0.866. In the case of C27A A40C, the self-cleavage was 0.256. C27A A40U: the self-cleavage is 0.304.

In the case of C27A A40G, the self-cleavage stood at 0.452. For C27G A52U the value was 0.132.

C27G A52C: the self-cleavage was 0.191. For C27G A52G the value was 0.24; for C27U A42G, 0.174; for C27U A42C, 0.27. On to C27G U38A, for which the self-cleavage was 0.191.

C27G U38C: the self-cleavage was 0.243.

As to U26G C35G, the self-cleavage amounted to 0.241.

In the case of U26G C35A, the self-cleavage was determined as 0.184. Take C27A U64A: the self-cleavage was determined as 0.286. On to C27A U64G, for which the self-cleavage was determined as 0.319. For C27G C32A the value was 0.201; for C27G C32G, 0.134; for C27G C32U, 0.207. For C27G U44G the value was 0.155; for C27A G58U, 0.727. On to C27A G58A, for which the self-cleavage stood at 0.377. For C27A C33U the value was 0.539; for C27A C33A, 0.288.

With C27A C33G, the self-cleavage is 0.224.

Take C27A C39U: the self-cleavage came to 0.339.

As to C27A C39G, the self-cleavage came out at 0.346. Turning to C27A C39A, the self-cleavage was determined as 0.205.

As to C27A C57U, the self-cleavage came to 0.173.

On to C27A C57A, for which the self-cleavage stood at 0.189.

As to U26G U69C, the self-cleavage was 1.04. For U26G U69G the value was 1; for U26G U69A, 1. For U26G U55G the value was 0.404; for C27G U53G, 0.267; for C27G U53A, 0.221.

For the variant C27G U53C, the self-cleavage amounted to 0.134.

For the variant C27U G30U, the self-cleavage came out at 0.181.

Take C27U G30C: the self-cleavage came to 0.164. With C27U G30A, the self-cleavage is 0.224.

As to C27U U44A, the self-cleavage worked out at 0.292.

As to C27U U44C, the self-cleavage is 0.15. In the case of C27G C33G, the self-cleavage came to 0.241. For C27A G41C the value was 0.149. As for C27A G41A, the self-cleavage was 0.196. For C27U G58C the value was 0.351.

On to C27U G58U, for which the self-cleavage was determined as 0.526. For C27U G58A the value was 0.237; for C27A G28C, 0.158. For C27A G28U the value was 0.187; for C27A G28A, 0.18; for C27A A52C, 0.556.

Take C27U G28C: the self-cleavage turned out to be 0.218. For C27U G28U the value was 0.187; for C27U U43A, 0.188; for C27U U43G, 0.14. As to C27G G68C, the self-cleavage was found to be 0.234. Consider C27G G68U, for which the self-cleavage came out at 0.309. For C27A U69A the value was 0.843; for C27A U69C, 0.955. For C27A U69G the value was 0.825; for C27A G56C, 0.187; for C27A G56U, 0.371. For C27G U67G the value was 0.255; for C27G U67C, 0.247; for C27G U67A, 0.166. On to C27U C54A, for which the self-cleavage was 0.18.

Turning to C27U C54U, the self-cleavage stood at 0.328. For C27U C54G the value was 0.195; for C27U G31A, 0.266. For C27U G31U the value was 0.192; for C27A U43G, 0.226; for C27A U43A, 0.18. For C27G G50U the value was 0.175; for C27G G50A, 0.17; for C27G G50C, 0.141. Turning to C27G A51G, the self-cleavage turned out to be 0.217. Take C27G A51U: the self-cleavage is 0.15.

For C27G A40C, the self-cleavage came out at 0.258.

For C27A A42C, the self-cleavage came to 0.286. For C27A A42U, the self-cleavage worked out at 0.379. For C27A A42G the value was 0.419.

For the variant C27A C32A, the self-cleavage came to 0.241. For C27A C32G the value was 0.155; for C27A G47U, 0.738.

As to C27A G47C, the self-cleavage worked out at 0.72. Regarding U26G C27U, the self-cleavage amounted to 0.605. For U26G C27G the value was 0.34; for U26G C57A, 0.339; for U26G C57G, 0.172.

C27A U36C: the self-cleavage amounted to 0.261. For C27A U36G the value was 0.146.

Turning to U26G C29U, the self-cleavage worked out at 0.318. Consider U26G C29G, for which the self-cleavage was determined as 0.414. For U26G U49G, the self-cleavage was 0.907. For U26G U49C the value was 0.924. With C27G C45G, the self-cleavage is 0.144. For U26G U36G the value was 0.198; for U26G U36C, 0.42.

C27U G68U: the self-cleavage was determined as 0.432. For C27U G68A the value was 0.614; for U26G U53G, 0.778. For U26G U53A the value was 0.782; for U26G U53C, 0.768. Consider U26G G30C, for which the self-cleavage was determined as 0.284. As for U26G G30U, the self-cleavage worked out at 0.164. For the variant C27A C34A, the self-cleavage came to 0.164. For C27A C34G the value was 0.219. For C27A C34U the value was 0.52; for C27G G37C, 0.162. For C27A U49C the value was 0.702; for C27A U49G, 0.59. As to C27A C35U, the self-cleavage is 0.441. Regarding C27A C35A, the self-cleavage turned out to be 0.209.
